PMC6591361, “Recombinant production of human α2-macroglobulin variants and interaction studies with recombinant G-related α2-macroglobulin binding protein and latent transforming growth factor-β2” (Scientific Reports, 2019)

Tests used:
Conditions in all cases: both partners purified
[1] = target: T1, native authentic human α2-macroglobulin (human, UniProt P01023 24-1474, thioester bond intact (native form)); assay: SPR; Strep-tagged GRAB (9.7 nM) captured on Streptactin XT on a CM5 chip; analytes injected in multicycle runs (4–600 nM authentic hα2M, 75–1,200 nM N-hα2M and C-hα2M); HBNS (10 mM HEPES, 150 mM sodium chloride, pH 7.4), 37 °C; kinetic fit, 1:1 Langmuir model
T1 construct: human α2-macroglobulin, UniProt P01023, 1,474-residue precursor; as secreted it lacks the signal peptide (recombinant constructs begin at S24); Tetramer (680.6 kDa by SEC-MALLS); glycosylated; also called hα2M; native hα2M; source: purified from human blood plasma of individual donors (PEG 4,000 precipitation, zinc-chelating resin, IEC, SEC)
T1 sequence (looked up): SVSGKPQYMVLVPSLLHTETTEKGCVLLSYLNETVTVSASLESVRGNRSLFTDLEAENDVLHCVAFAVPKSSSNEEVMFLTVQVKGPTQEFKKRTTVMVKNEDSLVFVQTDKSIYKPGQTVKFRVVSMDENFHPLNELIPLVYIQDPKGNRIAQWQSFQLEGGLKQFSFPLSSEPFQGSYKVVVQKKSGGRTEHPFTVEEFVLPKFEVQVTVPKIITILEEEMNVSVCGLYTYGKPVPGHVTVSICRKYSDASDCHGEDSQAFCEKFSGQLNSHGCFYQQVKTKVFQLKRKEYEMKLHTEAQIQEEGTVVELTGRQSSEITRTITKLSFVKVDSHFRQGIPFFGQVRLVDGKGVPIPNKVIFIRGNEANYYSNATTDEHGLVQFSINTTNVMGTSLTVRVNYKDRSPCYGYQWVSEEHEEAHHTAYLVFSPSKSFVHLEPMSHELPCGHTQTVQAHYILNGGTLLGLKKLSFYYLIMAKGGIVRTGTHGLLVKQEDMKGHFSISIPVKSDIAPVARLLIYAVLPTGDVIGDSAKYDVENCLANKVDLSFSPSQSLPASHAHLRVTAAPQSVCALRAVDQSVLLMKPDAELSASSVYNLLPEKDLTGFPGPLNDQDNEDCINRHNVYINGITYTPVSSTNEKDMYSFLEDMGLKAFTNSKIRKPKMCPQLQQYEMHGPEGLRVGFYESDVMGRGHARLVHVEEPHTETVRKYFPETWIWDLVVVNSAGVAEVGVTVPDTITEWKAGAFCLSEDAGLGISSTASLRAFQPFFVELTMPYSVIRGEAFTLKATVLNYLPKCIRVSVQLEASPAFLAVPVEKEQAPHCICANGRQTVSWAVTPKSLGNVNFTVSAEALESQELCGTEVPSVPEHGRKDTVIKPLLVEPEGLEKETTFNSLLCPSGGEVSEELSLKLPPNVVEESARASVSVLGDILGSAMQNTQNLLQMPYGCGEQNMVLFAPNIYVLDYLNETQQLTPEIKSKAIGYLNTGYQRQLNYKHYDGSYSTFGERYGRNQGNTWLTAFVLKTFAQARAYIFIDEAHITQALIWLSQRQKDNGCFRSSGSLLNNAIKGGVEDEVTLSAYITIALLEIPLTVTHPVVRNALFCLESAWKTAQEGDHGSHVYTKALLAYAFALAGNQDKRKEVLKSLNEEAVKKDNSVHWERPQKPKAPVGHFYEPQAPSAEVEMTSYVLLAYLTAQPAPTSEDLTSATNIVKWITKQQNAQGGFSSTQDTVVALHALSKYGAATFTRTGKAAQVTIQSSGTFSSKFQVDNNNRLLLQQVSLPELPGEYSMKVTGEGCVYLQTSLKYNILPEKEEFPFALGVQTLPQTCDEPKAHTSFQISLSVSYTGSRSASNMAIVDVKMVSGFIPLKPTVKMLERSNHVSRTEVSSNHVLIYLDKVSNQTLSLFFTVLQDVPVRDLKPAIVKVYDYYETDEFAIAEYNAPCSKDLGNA

[2] = target: T2, methylamine-induced authentic human α2-macroglobulin (human, UniProt P01023 24-1474, thioester bond opened by methylamine, producing a free cysteine); assay: SPR; as a1, affinity analysis: steady-state responses (Req) against analyte concentration, 1:1 model
T2 construct: human α2-macroglobulin, UniProt P01023; plasma protein as m1, induced form; Tetramer (684.1 kDa by SEC-MALLS); also called induced hα2M; induced authentic hα2M
T2 sequence (looked up): T1 sequence (looked up)

[3] = target: T1, native authentic human α2-macroglobulin; assay: as above
[4] = target: T2, methylamine-induced authentic human …; assay: SEC-MALS; SEC-MALLS, Superose 6 10/300, buffer J (20 mM sodium phosphate, 150 mM sodium chloride, pH 7.4), 25 °C; GRAB to authentic hα2M at a molar ratio of 4:1; triplicate
[5] = target: T1, native authentic human α2-macroglobulin; assay: as above

B1: Strep-tagged G-related α2M-binding protein (GRAB), V34-N181 (domain or fragment)
chain: GAMVDSPIEQPRIIPNGGTLTNLLGNAPEKLALRNEERAIDELKKQAIEDKEATTAIEAASSDALEALADQTDALQSEEAAVVKADNAASDALEALADQTDALQSEEAEVVQSDNAASDAWEKAATPIALDVKKTKDTKPVVKKEERQNVN
notes: residues left at the N-terminus after TEV cleavage, from the cloning strategy; also called Strep-tagged GRAB; pCri-H6-TEV-GRAB-STREP; source: E. coli BL21 (DE3), purified (Streptactin XT, IEC, SEC); not shown: His6, N-terminal, cleaved; Strep-tag, C-terminal, kept
Kd [1]: 14.3 nM
koff [1]: 0.0019 s⁻¹
kon [1]: 132000 M⁻¹ s⁻¹
Kd [2]: 94.6 nM
Kd [3]: 34.5 nM

B2: G-related α2M-binding protein (GRAB), V34-N181, untagged (domain or fragment)
chain: B1 chain
notes: residues left at the N-terminus after TEV cleavage, from the cloning strategy; the theoretical mass of 15.8 kDa that it compares with fits the untagged form (surmise); also called pCri-H6-TEV-GRAB; source: E. coli BL21 (DE3), purified (Ni-NTA, TEV cleavage, reverse Ni-NTA, IEC, SEC); not shown: His6, N-terminal, cleaved
stoichiometry N [4]: 2 GRAB per hα2M tetramer
stoichiometry N [5]: 1.7 GRAB per hα2M tetramer
